Patent US20240174767A1

Target: β2AR wild type (wt) receptor (human) (UniProt P07550)
Assay: cell-based or functional assay

MbNb80^cHopQ (designed binder)
apparent potency shift: IC50 of epinephrine for β2AR-wt alone divided by the IC50^high of epinephrine for β2AR-wt in the presence of MbNb80^cHopQ ([3H]-DHA competition): 2000 fold | apparent potency shift: IC50 of isoprotenerol for β2AR-wt divided by the IC50^high of isoprotenerol for β2AR-wt in the presence of MbNb80^cHopQ ([3H]-DHA competition): 2000 fold
